Source: patent US6379928

Experiments:
Test in all cases: cell-based or functional assay
[1] = molecular target: chymosin polypeptide secreted by fungi transformed with pGRG2 (A. niger glucoamylase signal peptide and propeptide fused to bovine prochymosin) (bovine) (UniProt P00794)
[2] = molecular target: chymosin polypeptide secreted by fungi transformed with pGRG1 (A. niger glucoamylase signal peptide fused to bovine prochymosin) (bovine) (UniProt P00794)
[3] = molecular target: chymosin polypeptide secreted by fungi transformed with pGRG3 (bovine preprochymosin under the glucoamylase promoter) (bovine) (UniProt P00794)

Chymosin Activity (µg/ml) of pGRG2 broth after preincubation with pepstatin (0.1 without pepstatin) [1]: 0 µg/ml
Chymosin Activity (µg/ml) of pGRG1 broth after preincubation with pepstatin (0.2 without pepstatin) [2]: 0.05 µg/ml
Chymosin Activity (µg/ml) of pGRG3 broth after preincubation with pepstatin (3 without pepstatin) [3]: 0.6 µg/ml
Substance: pepstatin (peptide)
